Measurements reported in article doi:10.1101/2020.01.24.918722, “Calsyntenin-3 directly interacts with neurexins to orchestrate excitatory synapse development in the hippocampus” (bioRxiv, 2020).

B1: Ig-mNrxn1β^+SS4 (Fc fusion)
chain: not shown
notes: signal peptide in the construct; extracellular region of mouse neurexin-1β with the SS4 insert, aa 1-389; also called Ig-Nrxn1β^+SS4; pCMV-IgC-mNrxn1β^+SS4; source: HEK293T, purified (protein A-Sepharose)
B2: His-HA-Clstn3 Cad (extracellular, cadherin domains) (domain or fragment, mouse, UniProt Q99JH7 21-269, looked up)
chain: KANKHKPWIEAEYQGIVMENDNTVLLNPPLFALDKDAPLRYAGEICGFRLHGSGVPFEAVILDKATGEGLIRAKEPVDCEAQKEHTFTIQAYDCGEGPDGTNTKKSHKATVHVRVNDVNEFAPVFVERLYRAAVTEGKLYDRILRVEAIDGDCSPQYSQICYYEILTPNTPFLIDNDGNIENTEKLQYSGEKLYKFTVTAYDCGKKRAADDAEVEIQVKPTCKPSWQGWNKRIEYAPGAGSLALFPGIR
notes: mouse calsyntenin-3, aa 21-269 (cadherin domains); source: purified recombinant protein (pCAGGS vector); not shown: His6, N-terminal, kept; HA, N-terminal, kept

Tests used:
[1] = target: T1, His-HA-Clstn3 Ecto (extracellular domain of mouse Clstn3) (mouse, UniProt Q99JH7 21-846); experiment: pull-down; direct protein-interaction assay: 10 μg purified Ig-Nrxn1 with 4 μg purified His-HA-Clstn3, 2 h at 4°C, 25 mM Tris pH 7.5, 30 mM MgCl2, 40 mM NaCl, 0.5% Triton X-100; precipitated with Talon resin, blot with anti-human IgG; details: both partners purified
T1 construct: extracellular domain of mouse calsyntenin-3, aa 21-846; also called His-HA-Clstn3 Full (methods); source: purified recombinant protein (pCAGGS vector); not shown: His6, N-terminal, kept; HA, N-terminal, kept
T1 sequence (looked up): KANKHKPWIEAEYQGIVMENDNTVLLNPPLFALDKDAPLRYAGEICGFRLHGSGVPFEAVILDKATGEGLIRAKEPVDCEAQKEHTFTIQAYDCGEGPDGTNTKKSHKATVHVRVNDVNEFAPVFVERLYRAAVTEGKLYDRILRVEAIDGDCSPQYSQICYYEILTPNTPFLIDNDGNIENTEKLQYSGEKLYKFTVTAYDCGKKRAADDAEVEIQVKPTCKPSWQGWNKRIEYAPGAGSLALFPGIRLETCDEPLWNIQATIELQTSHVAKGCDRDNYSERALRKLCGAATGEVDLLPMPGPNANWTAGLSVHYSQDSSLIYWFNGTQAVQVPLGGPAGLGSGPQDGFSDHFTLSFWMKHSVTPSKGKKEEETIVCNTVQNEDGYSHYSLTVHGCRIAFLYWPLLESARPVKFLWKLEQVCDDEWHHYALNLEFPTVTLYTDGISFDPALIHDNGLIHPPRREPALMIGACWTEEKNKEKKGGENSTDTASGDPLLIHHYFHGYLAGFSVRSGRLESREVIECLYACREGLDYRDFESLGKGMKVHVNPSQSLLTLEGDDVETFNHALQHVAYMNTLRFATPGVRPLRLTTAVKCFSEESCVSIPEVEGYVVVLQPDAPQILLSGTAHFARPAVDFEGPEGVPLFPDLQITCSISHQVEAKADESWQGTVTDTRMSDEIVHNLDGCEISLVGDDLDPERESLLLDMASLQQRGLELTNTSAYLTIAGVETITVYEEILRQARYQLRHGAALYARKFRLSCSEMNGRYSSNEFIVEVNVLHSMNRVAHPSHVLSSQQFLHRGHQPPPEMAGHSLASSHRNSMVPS

Ig-mNrxn1β^+SS4 = target: B1; experiment: as above; details: both partners purified
Chain of Ig-mNrxn1β^+SS4 (P0DI97 47-389): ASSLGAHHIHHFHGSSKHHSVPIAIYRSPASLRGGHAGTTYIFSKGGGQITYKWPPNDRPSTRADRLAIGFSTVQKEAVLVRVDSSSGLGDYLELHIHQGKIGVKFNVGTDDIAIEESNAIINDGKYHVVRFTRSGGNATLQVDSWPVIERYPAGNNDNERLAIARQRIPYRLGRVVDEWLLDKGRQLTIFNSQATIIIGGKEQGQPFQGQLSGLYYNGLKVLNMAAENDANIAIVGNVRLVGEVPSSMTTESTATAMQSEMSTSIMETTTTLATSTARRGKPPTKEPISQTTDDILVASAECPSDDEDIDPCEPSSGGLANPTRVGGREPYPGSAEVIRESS

Row | Binder | binding result [1] | binding result (Ig-mNrxn1β^+SS4)
1 | B1 | binds | –
2 | B2 | – | binds
